Substitutions are numbered along the chain they refer to.
Columns and labels:
[1] = molecular target: T1, human IL6 (Peprotech catalogue number 200-06) (human, UniProt P05231 30-212); assay: Biacore, GH6L IgG1 captured on GMCSF immobilised on a CM5 chip (GMCSF bound at the same time), concentration series of IL6 injected; five sensorgrams with fits [contd.]
T1 construct: Bought protein
Excerpt: (§1) The antibody was expressed in human IgG1 format using standard mammalian expression vectors bearing GH6L heavy and light chain and signal peptide cDNAs, by transient transfection of HEK293-6E cells. Expressed IgG was affinity-purified using protein A resin. For Biacore™ analysis, GMCSF (Peprotech catalogue number 300-03) or an anti-light chain capture antibody was immobilized onto a CM5 chip using amine-coupling, resulting in 4000 RU and 12000 RU immobilized GMCSF and anti-light chain capture antibody, respectively.

[2] = molecular target: T1, human IL6 (Peprotech catalogue number …); assay: Biacore, GH6L IgG1 captured on anti-light chain antibody immobilised on a CM5 chip (no GMCSF), concentration series of IL6 injected; five sensorgrams with fits [contd.]
Excerpt: as §1

[3] = molecular target: T2, human VEGF (Peprotech catalogue number 100-20) (human, UniProt P15692-4 27-191); assay: SPR (Biacore), Fab captured by anti-light chain antibody on CM5 chip, VEGF 0-450 nM in flow
T2 construct: Bought protein
Procedure: Antibody libraries were selected against human VEGF (Peprotech catalogue number 100-20) and human IL6 (Peprotech catalogue number 200-06). Of the isolated parental antibody clones, IL6P and VEGFP were combined into the bi-specific antibody clone VH6L. […] To assess the affinities of parental and bi-specific antibodies, Biacore™ analysis was performed in order to analyze the binding behaviour of IL6P, VH6L and VEGFP. For this, an anti-light chain capture antibody was immobilized onto a CM5 chip using amine-coupling, resulting in 12000 RU. Fab fragments were captured to a level of 400-500 RU and a concentration series of IL6 and VEGF, ranging from 0 to 450 nM, was passed over the chip. As depicted in FIG. 7, clone IL6P binds to IL6, but not to VEGF, clone VEGFP binds to VEGF, but not to IL6, and the combined clone VH6L binds to both IL6 and VEGF.

T2 sequence (P15692 other isoform, or with tags, fused parts or gaps limits assumed): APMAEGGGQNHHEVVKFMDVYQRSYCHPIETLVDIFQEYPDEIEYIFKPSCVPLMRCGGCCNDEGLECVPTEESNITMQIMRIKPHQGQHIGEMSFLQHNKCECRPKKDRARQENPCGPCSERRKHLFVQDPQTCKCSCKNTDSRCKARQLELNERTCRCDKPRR

B1: GH6L (bispecific antibody, V domains shown)
VH: WVQLVESGGGLVQPGGSLRLSCAAKGALFSTYAMSWIRQAPGKGLEWIGQISGSGGSTVYNYNVLGRFTISRDNSKNTLYLQMNSLRAEDTAVYYCARDSGYFDIWGQGTLVTVSS
VL: ATQRTQSPSSLSASVGDRVTITCRALWHISSYLAWYQQKPGKAPKLLIYAASWLYWDVPSRFSGSGSGTDFTLTISSLQPEDFATYYCQQYSGLPYTFGQGTKVEIKR
notes: Specific for human GMCSF and human IL6, with two paratopes in one VH-VL pair; also called bi-specific antibody clone GH6L
[1]
  koff: 0.00045 s⁻¹
  kon: 24000 M⁻¹ s⁻¹
[2]
  koff: 0.0017 s⁻¹
  kon: 57000 M⁻¹ s⁻¹

B2: VH6L (Fab, V domains shown)
VH: B1 VH with W1Y, V2Y, K25D, A27F, T31G, S100T, I105H
VL: B1 VL with A1N, T2I, R4K, W53H, Y55H, W56Y, D57G
notes: Bi-specific clone (VEGF and IL6, two paratopes in one VH-VL pair) combined from IL6P and VEGFP; Tested as a Fab fragment; also called bi-specific antibody clone VH6L; combined clone VH6L
[3]
  Kd: 7.8 nM

B3: VEGFP (Fab, V domains shown)
VH: B1 VH with W1Y, V2Y, K25D, A27F, T31G, V59Y, Y62D, S100T, I105H
VL: B1 VL with A1D, R4M, L26S, W27Q, H28S, W53H, Y55H, W56Y, D57G, G93S
notes: Parental anti-VEGF clone, tested as a Fab fragment captured by an anti-light chain antibody in Biacore; the constant parts are human CH1 and CK; also called parental antibody VEGFP; clone VEGFP
[3]
  Kd: 11 nM
